Source: patent publication US20210052718A1

What was measured:
[1] = biological target: Live RSV (A2 strain) (respiratory syncytial virus A2 strain) (UniProt P03420); assay: ELISA on coated virus; grade +++ = OD 1-1.5
[2] = biological target: Split RSV4° C. (inactivated at low temperature (4° C.) and split) (respiratory syncytial virus) (UniProt P03420); assay: ELISA on coated virus preparation; grade ++++++ = OD >2.5
[3] = biological target: FI-RSV (post F): formalin-inactivated whole RSV (respiratory syncytial virus) (UniProt P03420); assay: ELISA on coated virus preparation; grade +++ = OD 1-1.5
Sequence of UniProt P03420 (P03420 26-574): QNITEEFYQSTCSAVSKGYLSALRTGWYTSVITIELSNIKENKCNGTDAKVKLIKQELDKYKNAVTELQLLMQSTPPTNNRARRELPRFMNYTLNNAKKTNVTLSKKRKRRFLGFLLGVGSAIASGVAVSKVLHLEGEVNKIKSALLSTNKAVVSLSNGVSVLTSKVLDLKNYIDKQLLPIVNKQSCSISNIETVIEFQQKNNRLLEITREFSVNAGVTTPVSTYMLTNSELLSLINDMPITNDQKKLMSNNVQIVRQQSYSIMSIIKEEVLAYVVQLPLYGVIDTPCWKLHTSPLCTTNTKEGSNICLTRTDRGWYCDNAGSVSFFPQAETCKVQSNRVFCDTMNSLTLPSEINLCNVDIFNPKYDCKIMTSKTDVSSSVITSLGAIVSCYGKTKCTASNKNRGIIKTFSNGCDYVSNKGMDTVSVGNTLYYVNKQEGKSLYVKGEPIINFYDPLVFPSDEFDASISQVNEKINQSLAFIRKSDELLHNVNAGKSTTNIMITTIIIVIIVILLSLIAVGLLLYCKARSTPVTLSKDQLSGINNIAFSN

[4] = biological target: Split RSV37° C. (standard preparation of inactivated split RSV vaccine) (respiratory syncytial virus) (UniProt P03420); assay: ELISA on coated virus preparation; grade +++++ = OD 2-2.5
Sequence of Split RSV37° C. (standard preparation of inactivated split RSV vaccine) (respiratory syncytial virus) (P03420 26-574): as above

Sequence of Split RSV4° C. (inactivated at low temperature (4° C.) and split) (respiratory syncytial virus) (P03420 26-574): as above
Sequence of Live RSV (A2 strain) (respiratory syncytial virus A2 strain) (P03420 26-574): as above

palivizumab (antibody)
ELISA OD [1]: 1 to 1.5 od | ELISA OD [2]: > 2.5 od | ELISA OD [3]: 1 to 1.5 od | ELISA OD [4]: 2 to 2.5 od
